Measurements reported in ChEMBL document CHEMBL1145329, “Novel methylenephosphophosphonate analogues of mycophenolic adenine dinucleotide. Inhibition of inosine monophosphate dehydrogenase” (J Med Chem, 2006).

System: NC(=O)c1ccc[n+]([C@@H]2O[C@H](COP(=O)([O-])OP(=O)(O)OC[C@H]3O[C@@H](n4cnc5c(N)ncnc54)[C@H](O)[C@@H]3O)[C@@H](O)[C@H]2O)c1
Assay: Inhibition of human IMPDH
Format: protein assay

In the case of “Inosine-5'-monophosphate dehydrogenase (IMPDH) (Homo sapiens) (from UniProt P20839+P12268)”, the Km is reported as 100 µM.
